Laboratory results reported in the nanobody polyreactivity screen of Harvey et al. (2022).

Assay: yeast display, Sf9 membrane polyspecificity reagent, FACS + sequencing; frameworks hold sequencing errors
Procedure, shortened: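 Sorting gates, low and high (top ~1%), were placed on anti-HA fluorescence to track expression and on streptavidin fluorescence to track reagent binding. A clone's polyreactivity label is taken from the gate it came out of. The reagent was 10% biotinylated, detergent-solubilized Sf9 membrane, applied for 1 hour at 4 °C to galactose-induced yeast display cells.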

| Sequence | polyreactivity (PSR sort gate) |
| --- | --- |
| QVQLVESGGGLVQAGGSLRLSCAASGRIFWYYAMGWSRQAPGKERELVATISSRSGSTYYADSVKGRFTISRDNAKNTVYLQMNSLKPEDTAVYYCAAGTPYYLGYRHNTGLFDYWGQGTQVTVSS | high polyreactivity |
| QVQLVESGGGLVQAGGSLRLSCAASGRTFQDNAMGWNRQAPGKETELVAAISWRGGSTNYADSVKGRFTISRDHAKNTVYLQMNSLKPEHTAVYYCNRDPRKYGKLDYWGQGTQVTVSS | low polyreactivity |
| QVQLVESVGGLVQSGGSLRLSCAASGFTFYRYGIGWYREAPGKERELVAAITSGGITYYADSVKGRFTISRDNAKNTVYLQLNSLKPEDTAVYYCNAVYPVAAIVRYDYWGQGTQVTVSS | high polyreactivity |
| QVQLVESGGGLVQAGGSLRLSCAGSGIILYWNTMGWYRHAPGKERELVAAITWSVGRTYYADSVKGRFTISRDNAKNTVYLQMNSLKPEDTAVYYCATTFQYYWFSLYDYWGQGTQVTVSS | low polyreactivity |
| QVQLVESGGGLVQAGGSLRLSCAASGGTFGRYAMGWYRQAPGKERELFAAITWGGTRTYYADSVKGRFTISRDNAKNTVYLQMNSLKPEDTAGYYCAAYSNYPVFDYNYWGQGTQVTVSS | high polyreactivity |
| QVQLVESGGGLVQAGGSLRLSCAASGRTFFGYTMGWYRHAPGKERELVAVISKRGGRTYYADSVKGRFTISRDNAKNTVYLQMNSLKPEDTAVYYCNRVKDSNVSQAMEYWGQGTQVTVSS | high polyreactivity |
| QVQLVESGGGLVQAGGSLRLSCAASGYTFDLYAMGWYRQAPGKERELVADISSGGSTNYADSVKGRFTISRDNAKNTVYLQMNSLKPEDTAVYYCAVDADRTLFGQYYVSEYGGGYWGQGTQVTVSS | low polyreactivity |
| QDQLVESGVGLVQAGGSHRLSCAASGSTFYRYAMRWYRQAHGKERELVATITTGGSSTYYADSVKGRFTISRDNAKNTVYLQMNSLKPEDTAVYYCAKVYTYSGVNLRRISTPYGYWGQGTQVTVSS | high polyreactivity |
| QVHLVETVRGLLQAGGSLRISCAASGRSFKRYAMGWYRQAPGKERELVAAITRSGGSTYYADSVKGRFTISRDNAKNTVYLQMNSLKPEDTAVYYCATRSYNNELEYWGQGSQVTVSS | high polyreactivity |
| QVQLVESGGGLVQAGGSLRLSCAASGRIFFRYAMGWYRQAPGKERELVASIRFRGGSTYYADSVKGRFTISRDNAKNTVYLQLNSLKPVDTAVYYCATPGSFTGTQRTGDYWGQGTQVTVSS | high polyreactivity |
| QVHLVESGGGLVKAGGSLRLSCAASGGTIFVYMGWYRQDPGKETELVADISGSGGGTYYADSVKGRFTISRDNAMNTVYLQMNSLKPEDTAVYYCAAYYGHTYNGYYYWGQGTQVTVSS | low polyreactivity |
| QVQLVESGGALVQAGGSLRLSCAASGSTFPTNAMGWYRQAPGKERELVAAITSSTGSTYYADSVKGRFTISRDNAKNTVYLQMNSLKPEDTAVYSCAKSKQWQRYLRGNYWGQGTQVTVSS | low polyreactivity |
| QVQLVESGGGLVQAGGSLRLSFAASGRIFPFYAMGWYRQEPGKERELVAALSWNGGSTFYADSVKGRFTISRDNAKNSVYLQMNSLKPEDTAVYYCAADCYATYFLYDSCGQGTQVTVSS | low polyreactivity |
| QVHLVESGGGLVQAGGSLRLSCAASGFNLLPYALGWYRQAQGKERELVATINSGDSTYADSVKGRFTISRDNAKNTVYLQMNSLKPEDTAVYYCNAYWLVVPVDLDYWGQGTQVTVSS | low polyreactivity |
| QVQLVESGGGLVQAGGSLRLSCAASGRTFYTNAMGWYRQAPGKERELVAAIDGGGTTYYADSVKGRFTISRDNAKNTVYLQMNSLKPEDTAVYYCNADVFGLKQTAFDYWGQGTQVTVSS | low polyreactivity |
| QVQLVESGGGLVQAGGSLRLSCAASGFICRGNAMGLYRQAPGKERELVASISRTGDTTYYADSVKGRFTISRDNAKNTVYLQMNSLTPEDTAVYYCARRSRVGYPLDSWGQATQVTVSS | high polyreactivity |

| Sequence | polyreactivity (PSR sort gate) |
| --- | --- |
| QVQLVESGGGLVQAGGSLRLSCAASGRTFAVNVMGWYIPAPGKERELVAAIDFDDGITYYADSVKGRFTISRDNAKNTVYLQMNSLKPEDTAVYYCAAEFVYFGSDYYYWGQGTQVTVSS | high polyreactivity |
| QVQLVESGGGLVQAGGSLRLSCAASGFTFYRYAMGWYRQAPGKERELVAALSGSGGSTYYADSVKGPFTISRDNAKTTVYLQMNSLNPEDTAVYYCNTVWFYGAKYDYWGQGTQVTVSS | high polyreactivity |
| QVQLVESGGGLVQAGGSLRLSCAASGRTFAWYAMGWYRQAPGKERELVAAITTRGSGTYYADSVKGRFTISRDNAKNTVYLQMNSLKPEDTAVYYCAKDPITATTLDERVFYWGQGTQVTVSS | low polyreactivity |
| QVQLVESWGGLVQAGLSLRLSCAASGIMGWYRQAPGKERELVDAITYTGDSTFYADSVKGRFTISRDNPKNTVYVQINSLKAEDTAVYDCATKYGTSNWYNTYYYWGQGTQVTVSS | low polyreactivity |
| QVQLVESGGGLVQAGGSLRLSCAASGRIFYSNTMGWYRQAPGKERELVARIDTGGGSTYADSVKGRFTISRDNAKNTVYLQMNSLKPEDTAVYYCNKKGRWRSWGSTSLVSMDYWGQGTQVTVSS | low polyreactivity |
| QVQLVESGGGLVQAGGSLRLSCSASGSTSFYNAIGWYRQAPGKERELVAAISWSTGSTYYADSVKGRFTISRDNAKNTVYLQMTSLKPEDTAVYYCAAETGKNVDFVWVLAYPRLDYWGQGTQVTVSS | low polyreactivity |
| QVQLVESGGGLVQAGGSLRLSCAASGSIFDRYAMGWYIQAPGKERELVASITWRATSTYYADSVKGRFTISRDNAKNTVYLQMNSLKPEDTAVYYCAADVPWGWWDSDFSDNYYWGQGTQVTVSS | low polyreactivity |
| QVQLQERGGGLVQAGGSLRQSCAAIGYIFPYYSMGWYRQATGKERGLVACIAAGTTTNYADSVKGRFTISRDNAINTVYLQMNSLKPEDAAVYYCAALNAFKTGHWYWGQGTQVTVSS | low polyreactivity |
| QVQLVESGGGLVQAGGRLRLSCAASGSIFQKNAMGWYRQAPGKERELVAVITRGGTSTYYADSVKGRFTISRDNAKNTVYLQMNSLKTEDTAVYYCAAKADKRLDYWGQGTQVTVSS | low polyreactivity |
| QVQLVESGGGLVQAGGSLRLSCAASGFIFDYNTMGWYRQEPGKERELVADISGGGGRTYYADSVKGRFTISRDNAKNTVYLQMNSLKPEDTAVYYCAALGYYHHAWWISYDYWGQGTQVTVSS | low polyreactivity |
| QDQLVESGGGLVQAGGSLRLSCAASGRTFKGYAMGWYRQAPGKERELVAAIDSDGSTSYADSVKGRFTISRDNAKNTVYLQMISLKPEDTAVYYCAAAGQRPYEKGDYWGQGTQVTVSS | low polyreactivity |
| QVQLVESGGGLVQAGGSLRLSCAASGFTFADYAMGWYRQAPGKEREWVAAISNGGSTTYADSVKGRFTSSRDNAKNTVYLQMNTLNPEDTAVYYCAAALSSYGWYAYGPWYGYWGQGTQVTVSS | high polyreactivity |
| QVQLVESGGGLVQAGGSLRLSCAASGRIFYSNTMGWYRQAPGKERELVARIDTGGGSTYADSVKGRFTISRDNAKNTVYLQMNSLKPEDTAVYYCAALKFEAWAGEDYWGQGTQVTVSS | low polyreactivity |
| QVKLVESGGGLVKAGGILRLSCAASGRTFRRNAMGWYRQPPGKESELVAAISSSGGSTYYADSVKGRFTISRDNAKNTVYLQMNSLKPEDTAVYYCNAYRYYVYDTYDGHGYWGQGTQVTVSS | high polyreactivity |
| QVQLVESGGCLVQAGRSLRLSCAASGRTFPTYAMGWYRQAPGKERELVAAIRISGGRTYYADSVKGRFTISRDISKNTVYLQMNSLKPEDTAVYYCATRDRAGYYYWGQGTQVTVSS | high polyreactivity |
